Tests used:
bPrP peptide 16 = biological target: T1, bPrP peptide 16 (bovine, UniProt P10279 108-119); assay: microchip electrophoresis
T1 chain: GQWNKPSKPKTN

bPrP peptide 1 = biological target: T2, bPrP peptide 1 (bovine, UniProt P10279 25-36); assay: microchip electrophoresis
T2 chain: KKRPKPGGGWNT

GGAGGAGGAGGA (structured_RNA) [R12]: binds (bPrP peptide 16); binds (bPrP peptide 1).
